Target: T1, Human full-length TOP2B (topoisomerase II beta) (human), Q02880
T1 chain: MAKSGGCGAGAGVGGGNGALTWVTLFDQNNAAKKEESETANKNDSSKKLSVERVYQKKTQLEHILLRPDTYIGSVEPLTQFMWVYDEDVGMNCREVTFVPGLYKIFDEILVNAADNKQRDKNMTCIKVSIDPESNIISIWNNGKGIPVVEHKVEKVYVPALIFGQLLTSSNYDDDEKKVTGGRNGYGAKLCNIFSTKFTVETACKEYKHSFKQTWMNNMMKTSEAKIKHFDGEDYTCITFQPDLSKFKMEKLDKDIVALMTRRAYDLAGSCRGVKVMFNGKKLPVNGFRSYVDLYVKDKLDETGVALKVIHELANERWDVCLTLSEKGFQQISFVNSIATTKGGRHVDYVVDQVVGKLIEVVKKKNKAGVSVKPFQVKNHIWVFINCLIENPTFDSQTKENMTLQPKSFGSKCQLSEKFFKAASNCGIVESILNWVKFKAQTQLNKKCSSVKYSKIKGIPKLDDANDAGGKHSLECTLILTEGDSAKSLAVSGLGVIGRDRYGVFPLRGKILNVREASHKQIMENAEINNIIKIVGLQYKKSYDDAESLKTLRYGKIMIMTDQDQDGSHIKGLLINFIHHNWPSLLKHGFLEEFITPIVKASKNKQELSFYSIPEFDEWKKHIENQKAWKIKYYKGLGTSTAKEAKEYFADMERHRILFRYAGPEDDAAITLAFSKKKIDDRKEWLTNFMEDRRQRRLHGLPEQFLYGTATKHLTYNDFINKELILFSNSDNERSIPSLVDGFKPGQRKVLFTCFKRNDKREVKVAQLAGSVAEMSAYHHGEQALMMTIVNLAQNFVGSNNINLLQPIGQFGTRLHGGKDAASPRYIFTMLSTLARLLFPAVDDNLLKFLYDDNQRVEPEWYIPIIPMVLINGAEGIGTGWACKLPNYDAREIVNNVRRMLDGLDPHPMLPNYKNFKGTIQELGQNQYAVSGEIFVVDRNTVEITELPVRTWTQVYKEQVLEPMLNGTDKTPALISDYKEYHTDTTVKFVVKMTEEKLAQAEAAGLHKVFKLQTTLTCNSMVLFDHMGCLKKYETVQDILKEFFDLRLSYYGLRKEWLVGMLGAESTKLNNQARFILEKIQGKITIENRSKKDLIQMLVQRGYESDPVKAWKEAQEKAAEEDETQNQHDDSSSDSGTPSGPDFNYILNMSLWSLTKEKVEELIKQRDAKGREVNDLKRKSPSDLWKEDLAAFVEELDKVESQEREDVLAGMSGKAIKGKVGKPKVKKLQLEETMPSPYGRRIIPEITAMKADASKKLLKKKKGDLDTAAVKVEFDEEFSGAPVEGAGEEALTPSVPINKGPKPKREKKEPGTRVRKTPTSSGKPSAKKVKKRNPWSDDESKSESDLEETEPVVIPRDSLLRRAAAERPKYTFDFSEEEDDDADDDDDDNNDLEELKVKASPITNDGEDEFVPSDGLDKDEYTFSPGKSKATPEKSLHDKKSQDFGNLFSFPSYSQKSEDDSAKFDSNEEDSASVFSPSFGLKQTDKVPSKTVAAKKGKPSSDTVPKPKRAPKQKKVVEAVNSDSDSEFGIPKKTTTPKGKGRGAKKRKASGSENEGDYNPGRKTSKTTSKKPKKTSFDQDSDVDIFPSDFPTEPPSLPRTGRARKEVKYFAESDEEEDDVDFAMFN
Test: cryo-EM structure; 8.3 uM TOP2B, 16.7 uM EGR1 TSS dsDNA (50 bp, -30 to +20) and 1.67 uM etoposide in 20 mM HEPES pH 8.0, 5 mM KCl, 5 mM MgCl2, 0.5 mM ATP; C2 symmetry imposed in 3D refinement (also reconstructed without it)
Settings: remark: other sources report otherwise

B1: Human full-length TOP2B (topoisomerase II beta), Q02880 1-1626 (enzyme)
chain: MAKSGGCGAGAGVGGGNGALTWVTLFDQNNAAKKEESETANKNDSSKKLSVERVYQKKTQLEHILLRPDTYIGSVEPLTQFMWVYDEDVGMNCREVTFVPGLYKIFDEILVNAADNKQRDKNMTCIKVSIDPESNIISIWNNGKGIPVVEHKVEKVYVPALIFGQLLTSSNYDDDEKKVTGGRNGYGAKLCNIFSTKFTVETACKEYKHSFKQTWMNNMMKTSEAKIKHFDGEDYTCITFQPDLSKFKMEKLDKDIVALMTRRAYDLAGSCRGVKVMFNGKKLPVNGFRSYVDLYVKDKLDETGVALKVIHELANERWDVCLTLSEKGFQQISFVNSIATTKGGRHVDYVVDQVVGKLIEVVKKKNKAGVSVKPFQVKNHIWVFINCLIENPTFDSQTKENMTLQPKSFGSKCQLSEKFFKAASNCGIVESILNWVKFKAQTQLNKKCSSVKYSKIKGIPKLDDANDAGGKHSLECTLILTEGDSAKSLAVSGLGVIGRDRYGVFPLRGKILNVREASHKQIMENAEINNIIKIVGLQYKKSYDDAESLKTLRYGKIMIMTDQDQDGSHIKGLLINFIHHNWPSLLKHGFLEEFITPIVKASKNKQELSFYSIPEFDEWKKHIENQKAWKIKYYKGLGTSTAKEAKEYFADMERHRILFRYAGPEDDAAITLAFSKKKIDDRKEWLTNFMEDRRQRRLHGLPEQFLYGTATKHLTYNDFINKELILFSNSDNERSIPSLVDGFKPGQRKVLFTCFKRNDKREVKVAQLAGSVAEMSAYHHGEQALMMTIVNLAQNFVGSNNINLLQPIGQFGTRLHGGKDAASPRYIFTMLSTLARLLFPAVDDNLLKFLYDDNQRVEPEWYIPIIPMVLINGAEGIGTGWACKLPNYDAREIVNNVRRMLDGLDPHPMLPNYKNFKGTIQELGQNQYAVSGEIFVVDRNTVEITELPVRTWTQVYKEQVLEPMLNGTDKTPALISDYKEYHTDTTVKFVVKMTEEKLAQAEAAGLHKVFKLQTTLTCNSMVLFDHMGCLKKYETVQDILKEFFDLRLSYYGLRKEWLVGMLGAESTKLNNQARFILEKIQGKITIENRSKKDLIQMLVQRGYESDPVKAWKEAQEKAAEEDETQNQHDDSSSDSGTPSGPDFNYILNMSLWSLTKEKVEELIKQRDAKGREVNDLKRKSPSDLWKEDLAAFVEELDKVESQEREDVLAGMSGKAIKGKVGKPKVKKLQLEETMPSPYGRRIIPEITAMKADASKKLLKKKKGDLDTAAVKVEFDEEFSGAPVEGAGEEALTPSVPINKGPKPKREKKEPGTRVRKTPTSSGKPSAKKVKKRNPWSDDESKSESDLEETEPVVIPRDSLLRRAAAERPKYTFDFSEEEDDDADDDDDDNNDLEELKVKASPITNDGEDEFVPSDGLDKDEYTFSPGKSKATPEKSLHDKKSQDFGNLFSFPSYSQKSEDDSAKFDSNEEDSASVFSPSFGLKQTDKVPSKTVAAKKGKPSSDTVPKPKRAPKQKKVVEAVNSDSDSEFGIPKKTTTPKGKGRGAKKRKASGSENEGDYNPGRKTSKTTSKKPKKTSFDQDSDVDIFPSDFPTEPPSLPRTGRARKEVKYFAESDEEEDDVDFAMFN
  stoichiometry N: 2

Source: article PMC10721843
